{"source": "patent US20070178448A1", "about": "(Scripps Research, published 2007)", "binders": {"B1": {"name": "M13KE-SBP phage prepared in TTS/RS 3 in the presence of p-acetylphenylalanine 3 (streptavidin binding peptide AGXTLLAHPQ, X = p-acetyl-L-phenylalanine, as … (peptide)", "chain": "AG[Phe(4-Ac)]TLLAHPQ", "modifications": "not fully specified (C-terminus)", "notes": "also called M13KE-SBP phage prepared in TTS/p-acetylphenylalanine 3; M13KE-SBP prepared in TTS/RS 3; not shown: pIII minor coat protein of M13 filamentous phage (vector M13KE); peptide fused at its N-terminus after the signal peptid"}}, "target": "T1, streptavidin (UniProt P22629 37-163, limits assumed)", "T1 construct": "also called streptavidin coated microtiter plates (Pierce); strepavidin", "T1 sequence (P22629 37-163 limits assumed)": "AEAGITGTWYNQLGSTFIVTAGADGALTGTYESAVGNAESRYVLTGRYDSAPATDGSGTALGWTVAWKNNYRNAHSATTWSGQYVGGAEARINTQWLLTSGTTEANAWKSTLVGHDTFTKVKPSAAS", "experiment": "phage capture on streptavidin coated wells, elution with 10 µM biotin, titer of input and output phage", "protocol": "In a model phage selection experiment, wild-type phage and phage carrying the mutant SBP with p-azido-L-phenylalanine were exposed to streptavidin coated wells, followed by recovery of the bound phage. Titer of the recovered enriched phage following elution was used as a measure of the binding specificity of the page for the streptavidin.\nSpecifically, two wells from a streptavidin coated microtiter plate (Pierce) were blocked with 300 μL of 4% BSA in 1×PBS at 4° C. overnight. After washing, separate streptavidin coated wells were incubated with similar numbers of phage (each in 100 μL) of either M13KE-SBP prepared in TTS/RS 3 or M13KE wild type phage at room temperature for 2 hours and washed 10 times with 200 μL PBST. The bound phage was eluted from the plate solid support with 10 μM biotin 1×PBS, pH 7.4. The input and output phage were titered (see, FIG. 9).", "note": "Non-standard residues stand in square brackets, D forms with d. No end group written: not given here. Phe(4-Ac) = CC(=O)c1ccc(C[C@H](N)C(=O)O)cc1", "data": [{"binder": "B1", "values": [{"measurement": "recovery rate, fold over that of M13KE wild-type phage", "result": 9000, "unit": "fold"}]}]}
